Results taken from US8993725B2, “Notch-based fusion proteins and uses thereof” (The Trustees of Columbia University in the City of New York, priority 2004, dated 2015).

How the values were obtained:
[1] = system: Notch1 signaling activated by Notch ligands (Jagged1, Delta-like 1, Delta-like 4); assay: Co-culture assay of ligand-induced Notch signaling (CSL-luciferase reporter); assay type: cell-based; conditions: for Inhibition of ligand-induced Notch1 signaling (CSL reporter activity): fusion protein expression vector co-transfected into Notch1-expressing HeLa, co-culture with ligand-expressing 293 (Bosc) cells
Description: Notch and Notch responsive transcriptional reporters are expressed in a “Notch-responsive” cell, HeLa. Notch ligands, Jagged-1, Delta-like 1, or Delta-like 4 are expressed in a “ligand-presenting” cell, 293. Expression is mediated by transfection of individual cell populations, cells are co-cultured, and then assayed for Notch-dependent reporter activity.
To determine ligand-induced Notch signaling, co-culture assays were performed using HeLa and 293-derived Bosc cells. Transient transfections were performed by calcium phosphate precipitation. Hela cells plated 1-day prior in 10-cm plates at 1.5×10^6 were transfected with 333 ng of pBOS Notch1, 333 ng pGA981-6, and 83 ng pLNC lacZ with either 666 ng pCMV-Fc or pHyTC-N1ECDFc (333 ng for ×1, 666 ng for ×2). Bosc cells plated 1-day prior in 10-cm plates at 4×10^6 were transfected with either 680 ng pHyTc-Jagged1, pHyTc-Dll1, pHyTc-Dll4, or pHyTc-x (empty vector). One day after transfection, the cells were co-cultured in triplicate (HeLa:Bosc, 1:2) on 12-well plates for 24 hours. Cells were harvested and luciferase activity was determined 2-days post-transfection using the Enhanced Luciferase assay kit (BD PharMingen), and β-galactosidase activity was determined using the Galacto-Light Plus kit (PE Biosystems). All assays were performed in a Berthold dual-injection luminometer.
An in vitro co-culture system (FIG. 3) with ligands expressed on one cell and Notch receptor activation scored in another cell was used to measure transcriptional activation of the Notch pathway. […] The N1ECD/Fc expression vector was co-transfected at different ratios with full-length Notch1 and the CSL-luciferase reporter in HeLa cells, followed by co-culture with ligand expressing 293 cells.

MMP9 = assay: Gelatin zymography of conditioned medium of transduced HUVEC, MMP-9; assay type: cell-based, Human; conditions: co-transduction with Ad-VEGF; fibrin gel
Description: FIGS. 24A-B show gelatin zymography analysis of MMP-9 and MMP-2 activity stimulated by VEGF in HUVEC. […] Transduced HUVEC were cultured on fibrin gel on the indicated day (i.e. D2, D4, D6, D8). Similar results were also obtained by using collagen gel, although induction of MMP-9 was stronger on fibrin gel than collagen gel (data not shown). […] HUVEC were transduced with Ad-N1ECDFc at the indicated doses and condition medium was collected from HUVEC cultured on collagen gel at day 4. FIGS. 24C-D show up-regulation of MMP-9 and MT1-MMP with Notch signaling. HUVEC were transduced with either Ad-LacZ or Ad-N1IC at 40 MOI. Numbers show PCR cycles. […] HUVEC were transduced with Ad-VEGF in the absence or presence of co-transduction of Ad-N1ECDFc at 40 MOI each. Ad-LacZ was co-transduced to make the same total amount of adenovirus at 80 MOI.
Requisition of MMPs for angiogenic sprouting has been established by synthetic MMP inhibitors (16). GM6001 is one broad inhibitor against MMPs including MMP2, MMP9 and MT1-MMP (18).

[2] = system: VEGF-induced angiogenesis; assay: Mouse Dorsa Air Sac (DAS) assay of in vivo angiogenesis; conditions: for VEGF-induced angiogenesis / neo-vascularization in vivo (summary statement): mouse
Excerpt: These Figures show the role of Notch signaling in VEGF-dependent in vivo angiogenesis. […] Representative photographs are shown. FIG. 25A show subcutaneous induced angiogenesis with 293/VEGF transfectant versus 293/VEGF also expressing Notch decoy (Notch-based fusion protein) N1ECDFc. […] MDA-MB-231 breast cancer cells produce VEGF (data not shown).

[3] = system: Notch signaling (CBF1 promoter activity) in HUVEC; assay: VEGF-induced Notch signaling, CBF1 promoter / CSL-luciferase reporter activity in HUVEC; assay type: cell-based, Human; conditions: for Inhibition of VEGF-induced CBF1 promoter activity: 40 MOI for each adenovirus; for Effect on VEGF-induced CBF1 promoter / CSL luciferase activity: co-infection (co-transduction) with Ad-VEGF in HUVEC
Description: To determine VEGF-induced Notch signaling, HUVEC which were infected with adenovirus were used. HUVEC plated 1-day prior in 6 well plates at 8.0×10^5 were infected with either Ad-LacZ as control or Ad-VEGF at indicated m.o.i. in the presence or absence of Ad-N1ECD/Fc. Two days after infection, infected HUVEC were re-seeded into 24-well plate at 1.5×10^5 cell in triplicate and cultured for 24 hours, and then transfected with 12.5 ng pRL-SV40 (Promega) and 137.5 ng pGA981-6 using Effectene transfection reagent (Qiagen). Cells were harvested either 1 or 2 days post-transfection and luciferase activity was determined by using the Dual-Luciferase® Reporter Assay System (Promega).
One can measure Notch signaling function by measuring transcriptional activity of CBF1 promoter, which is activated by binding of Notch-IC to CBF1. We measured CBF1 promoter activity in HUVEC which was infected with adenovirus encoding VECF-165 at different MOI (FIG. 6). Induction of CBF1 promoter was clearly detected in Ad-VEGF-infected HUVEC, compared to Ad-LacZ-infected cells in the MOI dependent manner. […] Thus VEGF induced Notch signaling activity.

[4] = listed as Notch-based fusion protein

B1: N1ECDFc: Notch-based fusion protein or decoy: extracellular domain of Notch1 containing the EGF-repeats fused to the Fc portion of an antibody (protein)
chain: ARGLRCSQPSGTCLNGGRCEVANGTEACVCSGAFVGQRCQDPSPCLSTPCKNAGTCYVVDHGGIVDYACSCPLGFSGPLCLTPLANACLANPCRNGGTCDLLTLTEYKCRCPPGWSGKSCQQADPCASNPCANGGQCLPFESSYICGCPPGFHGPTCRQDVNECSQNPGLCRHGGTCHNEIGSYRCACRATHTGPHCELPYVPCSPSPCQNGGTCRPTGDTTHECACLPGFAGQNCEENVDDCPGNNCKNGGACVDGVNTYNCRCPPEWTGQYCTEDVDECQLMPNACQNAGTCHNSHGGYNCVCVNGWTGEDCSDNIDDCASAACFQGATCHDRVASFYCECPHGRTGLLCHLNDACISNPCNEGSNCDTNPVNGKAICTCPRGYTGPACSQDVDECALGANPCEHAGKCLNTLGSFECQCLQGYTGPRCEIDVNECISNPCQNDATCLDQIGEFQCICMPGYEGVYCEINTDECASSPCLHNGRCVDKINEFLCQCPKGFSGHLCQYDVDECASTPCKNGAKCLDGPNTYTCVCTEGYTGTHCEVDIDECDPDPCHIGLCKDGVATFTCLCQPGYTGHHCETNINECHSQPCRHGGTCQDRDNYYLCLCLKGTTGPNCEINLDDCASNPCDSGTCLDKIDGYECACEPGYTGSMCNVNIDECAGSPCHNGGTCEDGIAGFTCRCPEGYHDPTCLSEVNECNSNPCIHGACRDGLNGYKCDCAPGWSGTNCDINNNECESNPCVNGGTCKDMTSGYVCTCREGFSGPNCQTNINECASNPCLNQGTCIDDVAGYKCNCPLPYTGATCEVVLAPCATSPCKNSGVCKESEDYESFSCVCPTGWQGQTCEIDINECVKSPCRHGASCQNTNGSYRCLCQAGYTGRNCESDIDDCRPNPCHNGGSCTDGVNAAFCDCLPGFQGAFCEEDINECATNPCQNGANCTDCVDSYTCTCPTGFNGIHCENNTPDCTESSCFNGGTCVDGINSFTCLCPPGFTGSYCQYDVNECDSRPCLHGGTCQDSYGTYKCTCPQGYTGLNCQNLVRWCDSAPCKNGGKCWQTNTQYHCECRSGWTGFNCDVLSVSCEVAAQKRGIDVTLLCQHGGLCVDEEDKHYCHCQAGYTGSYCEDEVDECSPNPCQNGATCTDYLGGFSCKCVAGYHGSNCSEEINECLSQPCQNGGTCIDLTNTYKCSCPRGTQGVHCEINVDDCHPPLDPASRSPKCFNNGTCVDQVGGYTCTCPPGFVGERCEGDVNECLSNPCDPRGTQNCVQRVNDFHCECRAGHTGRRCESVINGCRGKPCRNGGVCAVASNTARGFICRCPARFEGATCENDARTCGSLRCLNGGTCISGPRSPTCLCLGSFTGPECQFPASSPCVGSNPCYNQGTCEPTSESPFYRCLCPAKFNGLLCHILDYSFTDLGPG
modifications: left off: a dimerising Fc or GST
notes: Notch-based fusion protein or decoy: extracellular domain of Notch1 containing the EGF-repeats fused to the Fc portion of an antibody
- Concentration-dependency of inhibition of Notch1 signaling ([1]; 2:1 versus 1:1 ratio of N1ECD/Fc to Notch1 vector): a 2:1 ratio of N1ECD/Fc to Notch1 was more effective in inhibiting signaling than a 1:1 ratio
- Block of signaling by individual Notch ligands ([1]; Jagged1, Delta-like 1 or Delta-like 4 expressing cells): could block signaling mediated by Jagged1, Delta-like 1 or Delta-like 4
- Inhibition of ligand-induced Notch1 signaling (CSL reporter activity) [1]: inhibition of Notch signaling
- Inhibition of ligand-induced Notch1 signaling (CSL reporter activity) ([1]; listed as N1ECD/Fc): activation of Notch1 signaling by Notch ligands was reduced
- Inhibition of ligand-induced Notch1 signaling (CSL reporter activity) ([1]; listed as Notch1ECD/Fc): functions to block ligand-dependent Notch signaling
- Inhibition of ligand-induced Notch1 signaling (CSL reporter activity) [1, 4]: these inductions were inhibited
- VEGF-stimulated induction and activation of MMP9 (gelatin zymography) (MMP9): inhibition of both induction and activation of MMP9
- Vessel density, index of angiogenesis, MDA-MB-231 ([2]; Ad-N1ECDFc infected MDA-MB-231 cells): is inhibited
- Induction of VEGFR-1 expression in vivo ([2]; VEGF-induced skin neovascularization model): blocks
- Inhibition of MDA-MB-231-induced in vivo angiogenesis ([2]; adenovirus mediated expression, compared to adenovirus expressing LacZ): clearly inhibited
- Vessel density, index of angiogenesis, 293/VEGF ([2]; co-expression of 293/N1ECDFc): is inhibited
- Inhibition of 293/VEGF-induced in vivo angiogenesis ([2]; coexpression in 293/VEGF transfectant, compared to 293/VEGF alone): clearly inhibited
- VEGF-induced angiogenesis / neo-vascularization in vivo (summary statement) [2]: inhibition of VEGF-induced angiogenesis
- VEGF-induced angiogenesis / neo-vascularization in vivo (summary statement) [2, 4]: blocks VEGF-induced neo-vascularization
- Inhibition of VEGF-induced CBF1 promoter activity ([3]; 24 hr after reporter gene transfection): 60%
- Inhibition of VEGF-induced CBF1 promoter activity ([3]; 48 hr after reporter gene transfection): 90%
- Effect on VEGF-induced CBF1 promoter / CSL luciferase activity ([3]; listed as Ad-N1ECDFc): clearly decreased CSL luciferase activity induced by VEGF
- Effect on VEGF-induced CBF1 promoter / CSL luciferase activity ([3]; listed as Ad-Notch fusion protein): clearly reduced activation of CBF1 promoter activity
- Effect on VEGF-induced CBF1 promoter / CSL luciferase activity ([3]; listed as Ad-Notch-based fusion protein): clearly reduced activation of CBF1 promoter activity
- MOI dependence of the inhibitory activity on VEGF-induced CBF1 promoter activity ([3]; co-infection with Ad-VEGF in HUVEC): dependent on MOI
